Our source for the koff values is patent publication US20170089914A1 (Merck Sharp & Dohme, published 2017).

First the molecules themselves.
B1: A30633 Fab antibody (Fab-SASA secreted to culture medium) (Fab, V domains shown)
VH: QSLEESGGRLVTPGTPLTLTCTVSGFSLSTNDMNWVRQAPGKGLEWIGVIYSDDTPDYATWAKGRFTISRTSTTVDLKITSPTTEDTATYFCARGHYDSAVYAYALNIWGPGTLVTVSS
VL: ELVMTQTPSSVSAAVGGTVTITCQASQSLSNLLAWYQQKPGQPPKLLIYGASNLESGVPSRFRGSGSGTDFTLTISGMKAEDAATYYCQGGHYSGLTFGNGTNVEIK
notes: Rabbit variable domains from a Fab phage library; Tested as Fab-SASA expressed from the pFASEBA vector and captured on BSA via SASA
B2: A30514 Fab antibody (Fab-SASA secreted to culture medium) (Fab, V domains shown)
VH: QEQLVESGGRLVTPGTPLTLTCTASGFSLGSDFMSWVRQAPGKGLEWIGYIDPRSDIPYYASWAKGRFTISKTSTTVDLKITSPTTEDTATYFCARDLNAGYFNGIFYIWGPGTLVTVSS
VL: ELVMTQTPSSVSAAVGDTVTINCQASETVATLLAWYQQKPGQPPKLLIYGASNLESGVPSRFRGSGSGTEFTLTISGMKAEDAATYYCQYGYISTGSNTFGAGTNVEIK
notes: as for B1
B3: A30523 Fab antibody (Fab-SASA secreted to culture medium) (Fab, V domains shown)
VH: B2 VH
VL: ELDMTQTPSSTSEPVGGTVTINCQASQTISSYLSWYQQKPGHPPKLLIYDASDLASGVPSRFSGSRSGTQFTLTISGVQCDDAATYYCLGVYDYRSDDGAAFGGGTELEIL
notes: as for B1

In this test the target is pembrolizumab F(ab')2 protein. Put plainly: SPR (BIAcore T200), Fab-SASA captured on BSA chip, pembrolizumab F(ab')2 as analyte, 1:1 fit.
pembrolizumab F(ab')2 protein, sequence (chain, as listed by the source, chain 1 of 2): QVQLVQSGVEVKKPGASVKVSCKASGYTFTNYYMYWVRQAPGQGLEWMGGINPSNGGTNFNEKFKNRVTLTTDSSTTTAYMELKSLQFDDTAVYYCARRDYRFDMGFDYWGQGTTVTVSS
pembrolizumab F(ab')2 protein, sequence (chain, as listed by the source, chain 2 of 2): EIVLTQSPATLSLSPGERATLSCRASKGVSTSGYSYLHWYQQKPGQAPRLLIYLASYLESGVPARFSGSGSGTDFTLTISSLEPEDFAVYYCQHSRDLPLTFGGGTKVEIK
Turning to B1, the koff amounted to 0.0012 s⁻¹.

B2: the koff turned out to be 6.5e-05 s⁻¹. With B3 the figure was 0.00034 s⁻¹.
